Laboratory results: US9796965B2, “Use of Taq polymerase mutant enzymes for nucleic acid amplification in the presence of PCR inhibitors” (DNA Polymerase Technology Inc., priority 2006, dated 2017)
Entries after “also recorded” stand apart in the source; their conditions may differ.

How the values were obtained:
[1] = Functional analysis of codon 708 saturated mutagenesis variants for resistance to PCR inhibitors; type: biochemical; conditions: for functionality of the 708 substitution: KlenTaq or full-length Taq background
Protocol: Single amino acid changes of the wild type Taq Glu708 were implicated in both selected qualities of the mutants, blood and soil-resistance.
Saturated mutagenesis was performed at codon 708 of Taq to test functionally the full spectrum of all possible substitutions at this critical position.

630 bp CCR5 gene target = assay: Real-time PCR of human CCR5 target mixed with crude soil extract and SYBR titration; type: biochemical; conditions: 4 ng human DNA mixed with crude soil extract, SYBR titrated
Protocol: A 630 bp CCR5 gene target was amplified from 4 ng of human DNA mixed with crude soil extract and various amounts of SYBR. Klentaq-10 mutant enzyme was compared to it's wild type precursor, and FLAC-22 (SEQ ID NO: 2) was compared to the wild type Fast Start Taq polymerase (Roche). SYBR Green fluorescent dye was titrated to optimize the fluorescent signal for real time detection. PCR was performed in real-time cycler Opticon2, and the amplified products were analyzed both by gel electrophoresis (bottom panels) and SYBR Green dye melting curve profile (top panels).

[2] = tested on: 0.32 kbp 16S microbial target; assay: Real-time PCR of 16S microbial target double challenged with 5% blood and SYBR green dilutions; conditions: for amplification under double challenge: SYBR green dilutions from 32×, 40 cycles
[3] = tested on: 0.6 kbp Bacillus cereus target DNA; assay: Real-time PCR of 0.6 kbp Bacillus cereus target challenged with two-fold SYBR green dilutions; conditions: for SYBR concentration above which amplification failed / SYBR concentration in the presence of which the 0.6 kbp Bacillus cereus target DNA was amplified: 2.5 units enzyme per 50 ul, 20 pg genomic DNA, 40 cycles, no blood
[4] = tested on: endogenous 600 bp target of Bacillus Cereus; assay: Real-time PCR of endogenous Bacillus Cereus target from crude soil extract; type: biochemical; conditions: soil extract 16%, 8%, 4%, 2%
[5] = tested on: 244 bp influenza virus target; type: biochemical; conditions: 5% human serum, 200 μM TaqMan probe, PEC-Plus enhancer
[6] = tested on: 244 bp influenza virus RNA target; type: biochemical; conditions: purified RNA and mimic crude samples with 8% plasma, serum, whole blood; PEC-Plus enhancer
[7] = tested on: anthrax genome target (1.3 kb Bacillus anthracis); type: biochemical; conditions: 5% human blood, 32× SYBR Green
[8] = tested on: 0.6 kbp Bacillus cereus target DNA; assay: Real-time PCR of Bacillus cereus target double challenged with 5% and 10% blood and SYBR green dilutions
[9] = tested on: 0.25 kbp Lambda specific target; assay: Real-time PCR of Lambda target challenged with two-fold SYBR green dilutions; conditions: for SYBR concentration in the presence of which the 0.25 kbp lambda target was amplified: purified DNA template, 2.5 units per 50 ul, 35 cycles

Q: For “FLAC-3: full-length Taq mutant with Q substitution at 708”, which “functionality of the 708 substitution” value [1] is on record?
A: Its value is “only functional in Taq”.

Q: Which “functionality of the 708 substitution” value [1] does the source give for “FLAC-4: full-length Taq mutant with I substitution at 708” here?
A: The value was “only functional in Taq”.

Q: For “FLAC-10: full-length Taq mutant with K substitution at 708, corresponding to Klentaq10”, which “functionality of the 708 substitution” value [1] is on record?
A: The value was “efficient”.

Q: Which “functionality of the 708 substitution” value [1] does the source give for “FLAC-12: full-length Taq mutant with L substitution at 708, corresponding to Klentaq 12” here?
A: The value was “efficient”.

Q: For “Fast Start Taq: commercial wild type Taq enzyme (Roche)”, which “melting curve profile in crude soil samples” value (630 bp CCR5 gene target) is on record?
A: The value was “showed a melting curve at very low SYBR concentration”.

Q: What about the “post PCR melting curve analysis” value ([2]; 5% blood) of the same molecule?
A: Its value is “did do not show the correct melting temperature of the product at all”.

Q: And the “amplification under double challenge” value ([2]; 5% blood)?
A: The value was “able to amplify only the positive control”.

Q: What about the “SYBR concentration above which amplification failed” value [3] of the same molecule?
A: Its value is “higher than 0.2 ×”.

B1: KlenTaq-10: SEQ ID NO: 1; N-terminal deletion at 278 of full-length wild type Taq with substitutions E626K, I707L, E708K (protein)
chain: MGLLHEFGLLESPKALEEAPWPPPEGAFVGFVLSRKEPMWADLLALAAARGGRVHRAPEPYKALRDLKEARGLLAKDLSVLALREGLGLPPGDDPMLLAYLLDPSNTTPEGVARRYGGEWTEEAGERAALSERLFANLWGRLEGEERLLWLYREVERPLSAVLAHMEATGVRLDVAYLRALSLEVAEEIARLEAEVFRLAGHPFNLNSRDQLERVLFDELGLPAIGKTEKTGKRSTSAAVLEALREAHPIVEKILQYRELTKLKSTYIDPLPDLIHPRTGRLHTRFNQTATATGRLSSSDPNLQNIPVRTPLGQRIRRAFIAEEGWLLVALDYSQIELRVLAHLSGDKNLIRVFQEGRDIHTETASWMFGVPREAVDPLMRRAAKTINFGVLYGMSAHRLSQELAIPYEEAQAFIERYFQSFPKVRAWLKKTLEEGRRRGYVETLFGRRRYVPDLEARVKSVREAAERMAFNMPVQGTAADLMKLAMVKLFPRLEEMGARMLLQVHDELVLEAPKERAEAVARLAKEVMEGVYPLAVPLEVEVGIGEDWLSAKE
modifications: Klentaq-10
notes: N-terminal deletion at 278 of full-length wild type Taq with substitutions E626K, I707L, E708K
Q: Which “amplification in the presence of crude soil extract” value [4] does the source give for B1 here?
A: Its value is “outperforming the two commercial Tags; also recorded: amplified successfully”.

Q: What about the “real-time RT-PCR TaqMan detection of influenza virus gene” value [5] of the same molecule?
A: The value was “work in RT-PCR TaqMan assays”.

Q: And the “RT-PCR amplification of influenza virus gene” value [6]?
A: Its value is “work in RT-PCR”.

Q: What about the “resistance to PCR inhibitors among all 708 mutant variants” value [1] of the same molecule?
A: The value was “superior in all aspects of inhibitors resistance to PCR inhibitors”.

Q: And the “functionality of the 708 substitution” value [1]?
A: Its value is “efficient”.

Q: What about the “amplification/detection of Bacillus anthracis target in blood” value [7] of the same molecule?
A: Its value is “specifically amplified the target in 5% blood”.

Q: What about the “SYBR concentration in the presence of which the 0.6 kbp Bacillus cereus target DNA was amplified” value [3] of the same molecule?
A: The value was 4 ×.

Q: What about the “resistance toward SYBR green” value ([3]; no blood in the reaction (comparison value given in Example 3)) of the same molecule?
A: Its value is 4 ×.

Q: What about the “SYBR concentration allowing amplification compared to wild type KlenTaq” value ([8]; 5% and 10% blood, SYBR dilutions from 64×) of the same molecule?
A: The value was “at least two times higher concentration of SYBR”.

Q: And the “resistance toward SYBR green” value ([8]; with blood (5%, 10%) in the reaction)?
A: Its value is “at least 64 ×”.

Q: What about the “SYBR concentration in the presence of which the 0.25 kbp lambda target was amplified” value [9] of the same molecule?
A: Its value is “at least 4 ×”.

B2: wild type KlenTaq: SEQ ID NO: 3; N-terminal deletion at 278 of full-length Taq, Met/Gly replacing amino acids 279 and 280 (protein)
chain: MGLLHEFGLLESPKALEEAPWPPPEGAFVGFVLSRKEPMWADLLALAAARGGRVHRAPEPYKALRDLKEARGLLAKDLSVLALREGLGLPPGDDPMLLAYLLDPSNTTPEGVARRYGGEWTEEAGERAALSERLFANLWGRLEGEERLLWLYREVERPLSAVLAHMEATGVRLDVAYLRALSLEVAEEIARLEAEVFRLAGHPFNLNSRDQLERVLFDELGLPAIGKTEKTGKRSTSAAVLEALREAHPIVEKILQYRELTKLKSTYIDPLPDLIHPRTGRLHTRFNQTATATGRLSSSDPNLQNIPVRTPLGQRIRRAFIAEEGWLLVALDYSQIELRVLAHLSGDENLIRVFQEGRDIHTETASWMFGVPREAVDPLMRRAAKTINFGVLYGMSAHRLSQELAIPYEEAQAFIERYFQSFPKVRAWIEKTLEEGRRRGYVETLFGRRRYVPDLEARVKSVREAAERMAFNMPVQGTAADLMKLAMVKLFPRLEEMGARMLLQVHDELVLEAPKERAEAVARLAKEVMEGVYPLAVPLEVEVGIGEDWLSAKE
modifications: Klentaq-1
Q: What does the source list for B2?
A: melting curve profile in crude soil samples (630 bp CCR5 gene target): showed a melting curve at very low SYBR concentration; SYBR concentration above which amplification failed [3]: higher than 1 ×

B3: FLAC-22: SEQ ID NO: 2; full-length Taq with substitutions E626K, I707L, E708N (protein)
chain: MRGMLPLFEPKGRVLLVDGHHLAYRTFHALKGLTTSRGEPVQAVYGFAKSLLKALKEDGDAVIVVFDAKAPSFRHEAYGGYKAGRAPTPEDFPRQLALIKELVDLLGLARLEVPGYEADDVLASLAKKAEKEGYEVRILTADKDLYQLLSDRIHVLHPEGYLITPAWLWEKYGLRPDQWADYRALTGDESDNLPGVKGIGEKTARKLLEEWGSLEALLKNLDRLKPAIREKILAHMDDLKLSWDLAKVRTDLPLEVDFAKRREPDRERLRAFLERLEFGSLLHEFGLLESPKALEEAPWPPPEGAFVGFVLSRKEPMWADLLALAAARGGRVHRAPEPYKALRDLKEARGLLAKDLSVLALREGLGLPPGDDPMLLAYLLDPSNTTPEGVARRYGGEWTEEAGERAALSERLFANLWGRLEGEERLLWLYREVERPLSAVLAHMEATGVRLDVAYLRALSLEVAEEIARLEAEVFRLAGHPFNLNSRDQLERVLFDELGLPAIGKTEKTGKRSTSAAVLEALREAHPIVEKILQYRELTKLKSTYIDPLPDLIHPRTGRLHTRFNQTATATGRLSSSDPNLQNIPVRTPLGQRIRRAFIAEEGWLLVALDYSQIELRVLAHLSGDKNLIRVFQEGRDIHTETASWMFGVPREAVDPLMRRAAKTINFGVLYGMSAHRLSQELAIPYEEAQAFIERYFQSFPKVRAWLNKTLEEGRRRGYVETLFGRRRYVPDLEARVKSVREAAERMAFNMPVQGTAADLMKLAMVKLFPRLEEMGARMLLQVHDELVLEAPKERAEAVARLAKEVMEGVYPLAVPLEVEVGIGEDWLSAKE
modifications: FLAC-22
notes: full-length Taq with substitutions E626K, I707L, E708N
Q: What does the source list for B3?
A: real-time RT-PCR TaqMan detection of influenza virus gene [5]: work in RT-PCR TaqMan assays; amplification under double challenge ([2]; 5% blood): capable of amplifying with all SYBR concentrations; SYBR green necessary for real-time PCR detection ([2]; 5% blood, melting curve analysis): at least 4 ×; resistance toward SYBR green ([2]; with 5% blood in the reaction): at least 32 ×; RT-PCR amplification of influenza virus gene [6]: work in RT-PCR; resistance to PCR inhibitors among all 708 mutant variants [1]: superior in all aspects of inhibitors resistance to PCR inhibitors; functionality of the 708 substitution [1]: only functional in Taq; amplification/detection of Bacillus anthracis target in blood [7]: successful real-time PCR detection; SYBR concentration in the presence of which the 0.6 kbp Bacillus cereus target DNA was amplified [3]: 1.6 ×; SYBR concentration in the presence of which the 0.25 kbp lambda target was amplified [9]: 2 ×; resistance toward SYBR green ([9]; without blood in the reaction (comparison value given in Example 4)): 2 ×
